Measured values: patent US20110269148A1 (published 2011)

Molecular target: protein A on the surface of Staphylococcus aureus cells (ATCC 12598) (Staphylococcus aureus, UniProt P38507 37-477)
Assay: cell-based or functional assay

B1: sdAb-NAEB: single domain antibody HVHP428 (human VH) conjugated to rhodamine 6G gold nanoaggregate embedded beads with silica shell (other)
VH: QLQLQESGGGLVQPGGSLRLSCAASGFTFSSYAMSWFRQAPGKGLEWVGFIRSKAYGGTTEYAASVKGRFTISRDDSKSIAYLQMNSLRAEDTAMYYCARRAKDGYNSPEDYWGQGTLVTVSS
modifications: covalently coupled by EDC/NHS chemistry to the amine- or carboxylate-modified silica shell of the bead; coupled residues not stated
agglutination relative to the sdAb pentamer (Ryan et al., 2009; MAC value 3×10^13 pentamer mL^-1): > 100 fold
